From patent US20240327525A1 (VIB VZW, published 2024)

Experiments:
[1] = biological target: T1, human CI-M6PR domain1-3His6 (human, UniProt P11717 41-467); assay: BLI, association pH 7.4, dissociation at pH 6.5, mean of local fits
T1 construct: Recombinant, made in HEK293 cells; Biotinylated with NHS-PEG4-biotin for BLI; unlabelled in SEC-MALLS and crystallisation; also called CI-M6PR hDom1-3His6; hDom1-3His6
Method: (§1) FIGS. 9A-9E. […] BLI was performed on an Octet Red96 (FortéBio) instrument in kinetics buffer (0.2 M Na₂HPO₄, 0.1 M Na⁺citrate, 0.01% bovine serum albumin, 0.002% Tween-20). Biotinylated human domain₁₋₃His₆ was immobilized on Streptavidin SA biosensors (Sartorius) to a signal of 0.6 nm. […] Between runs, biosensors were regenerated by three times 10 s exposure to regeneration buffer (10 mM glycine pH 3). The degree of association and dissociation was measured in δ nm over time(s).
as §1, with “10A-10E.” for “9A-9E.”, “assays,” for “runs,”

[2] = biological target: T1, human CI-M6PR domain1-3His6; assay: BLI, association pH 7.4, dissociation at pH 5.5, mean of local fits
Method: as §1
as §1, with “10A-10E.” for “9A-9E.”, “assays,” for “runs,”

[3] = biological target: T1, human CI-M6PR domain1-3His6; assay: BLI, biotinylated antigen on SA tips, global 1:1 fit, association at pH 7.4
Method: (§2) Biotinylated human domain₁₋₃His₆ was immobilized on Streptavidin SA biosensors (Sartorius) to a signal of 0.6 nm. […] Between runs, biosensors were regenerated by three times 10 s exposure to regeneration buffer (10 mM glycine pH 3). The degree of association and dissociation was measured in δ nm over time(s).
as §1, with “10A-10E.” for “9A-9E.”, “assays,” for “runs,”
(§3) After loading, the tips were incubated with VHHs serially diluted in pH 7.4 kinetic buffer during the association phase and dissociation was performed at pH 7.4, pH 6.5, pH 6.0, pH 5.5 and pH 5.0. All biosensor tips were then regenerated before analysis of the subsequent VHH. Table 3 summarizes the kinetic parameters retrieved after processing and curve fitting of the BLI measurements.

[4] = biological target: T1, human CI-M6PR domain1-3His6; assay: BLI, association pH 7.4, dissociation at pH 6.0, mean of local fits
Method: as §1
as §1, with “10A-10E.” for “9A-9E.”, “assays,” for “runs,”

[5] = biological target: T1, human CI-M6PR domain1-3His6; assay: BLI, association pH 7.4, dissociation at pH 5.0, mean of local fits
Method: as §1
as §1, with “10A-10E.” for “9A-9E.”, “assays,” for “runs,”

[6] = biological target: T1, human CI-M6PR domain1-3His6; assay: BLI, biotinylated antigen on SA tips, global 1:1 fit, dissociation at pH 7.4
Method: as §2
as §1, with “10A-10E.” for “9A-9E.”, “assays,” for “runs,”
as §3

[7] = biological target: T2, human cation-independent mannose-6-phosphate receptor on cells (human, UniProt P11717 41-2491); assay: live-cell imaging of the uptake of AF488-labelled VHH by MCF7 cells
T2 construct: Endogenous receptor on MCF7 cells (live-cell imaging) and HeLa cells (LYTAC assays); also called cell-surface hCI-M6PR; native hCI-M6PR
Method: For live-cell imaging, 2×10⁴ MCF7 cells/well were seeded in OptiMEM medium and incubated the next day with Lyso Tracker Deep Red DND-99 (50 nM, Thermo Fischer, L12492) for 30 minutes at 37° C., 5% CO₂ and washed with OptiMEM after which 7.5 μM AF488 labelled anti-CI-M6PR VHHs (in OptiMEM) were incubated on the cells. For every well (i.e. anti-CI-M6PR VHH), Z-stacks were taken at three different positions every six minutes, for three hours in total. Z-slices (12) were acquired per position at a step size of 1.5 μm and XY pixel size was 275 nm by 275 nm. Excitation and emission wavelengths of the fluorescent compounds used were LTR (λEx: 633 nm and λEm: 665-715 nm), AF488 (λEx: 488 nm and λEm: 520±35 nm), Hoechst/DAPI (λEx: 405 nm and λEm: 420-470 nm).

[8] = biological target: T2, human cation-independent …; assay: cell-based or functional assay

Binder	koff [1] [s⁻¹]	koff [2] [s⁻¹]	kon [3] [M⁻¹ s⁻¹]	koff [4] [s⁻¹]	koff [5] [s⁻¹]	Kd [6] [nM]	koff [6] [s⁻¹]	binding result [7]	internalisation rate (live-cell imaging of AF488-VHH on MCF7 cells) [8] [summed AF-voxels/minute]
humanized variant VHH7h3 (VHH, Made in E. coli, IMAC purified; tag not specified) VHH: DVQLVESGGGLVQPGGSLRLSCAASGIIFSDNRMDWYRQAPGKQREWVATLASYGWKTYADSVKGRFTISRDNTKNTVYLQMNSLRPEDTAVYYCKASSPVLNDIWGQGTLVTVSS	0.011	0.015	460000	0.013	0.019	14	0.0064	–	–
humanized variant VHH7h2 (VHH, Made in E. coli, IMAC purified; tag not specified) VHH: DVQLVESGGGLVQPGGSLRLSCAASGIIFSDNRMDWYRQAPGKQREWVATLASYGWKTYADSVKGRFTISRDNSKNTVYLQMNSLRPEDTAVYYCKASSPVLNDIWGQGTLVTVSS	0.0094	0.014	470000	0.011	0.019	13.6	0.0064	–	–
humanized variant VHH7h1 (VHH, Made in E. coli, IMAC purified; tag not specified) VHH: EVQLVESGGGLVQPGGSLRLSCAASGIIFSDNRMDWYRQAPGKQREWVATLASYGWKTYADSVKGRFTISRDNSKNTVYLQMNSLRPEDTAVYYCKASSPVLNDIWGQGTLVTVSS	0.0097	0.014	500000	0.012	0.02	14.1	0.0071	–	–
anti-CI-M6PR VHH2 (VHH, Alexa Fluor 488 NHS ester label on amines, Tag not specified) VHH: QVQLQESGGGLVQPGGSLRLSCVFSGRTFMSYDVGWFRQAPGKERELLSSITSSSSSPYYAESVKGRFAVSRDGAKKTVYLRMNSLEPEDTAVYYCAARENWRNDWQYWGQTQVTVSS	–	–	–	–	–	–	–	no binding (tested: 7.5 µM)	–
anti-CI-M6PR VHH5 (VHH) VHH: QVQLQESGGGLVQAGGSLKLSCAAAGRTFSRLAMGWFRQAPGKEREFVAAISENGDSIHYSDSVKGRFAVSRDNAKNTVYLQMNSLKPEDTAIYYCAADRAAYYCSGSGCYPSRAPAAASYDYWGQGTQVTVSS	–	–	–	–	–	–	–	–	687000
humanized variant VHH8h2 (VHH, Made in E. coli, IMAC purified; tag not specified) VHH: DVQLVESGGGLVQPGGSLRLSCAASGRTFNTYNWGWFRQAPGKEREFVAAIRWSSSKTSYADSVKGRFTISRDNSKNTVYLQMNSLRPEDTAVYYCAASIVDFTTNPSHFGSWGQGTLVTVSS	0.0011	0.0044	220000	0.0015	0.041	3.07	0.00067	–	–
humanized variant VHH8h1 (VHH, Made in E. coli, IMAC purified; tag not specified) VHH: EVQLVESGGGLVQPGGSLRLSCAASGRTFNTYNWGWFRQAPGKEREFVAAIRWSSSKTSYADSVKGRFTISRDNSKNTVYLQMNSLRPEDTAVYYCAASIVDFTTNPSHFGSWGQGTLVTVSS	0.00053	0.0043	450000	0.0015	0.029	1.06	0.00048	–	–
humanized variant VHH8h3 (VHH, Made in E. coli, IMAC purified; tag not specified) VHH: DVQLVESGGGLVQAGGSLRLSCAASGRTFNTYNWGWFRQAPGKEREFVAAIRWSSSKTSYADSVKGRFTISRDNSKNTVYLQMNSLRPEDTAVYYCAASIVDFTTNPSHFGSWGQGTLVTVSS	0.0022	0.0041	290000	0.002	0.033	1.76	0.00051	–	–
anti-CI-M6PR VHH1 (VHH) VHH: QVQLQESGGGLVQPGGSLRLSCVASGFTFDRYWMNWLRQIPGKEIEWVSTINTGGTGTYYDDSVKGRFSISRDDAKNTLYLTMNSLKTEDTAVYYCARGATYYRGNSAIRGQGTQVTVSS	–	–	–	–	–	–	–	–	1.38e+06

Second part, the binder after the results:

koff [1] [s⁻¹]	koff [2] [s⁻¹]	kon [3] [M⁻¹ s⁻¹]	koff [4] [s⁻¹]	koff [5] [s⁻¹]	Kd [6] [nM]	koff [6] [s⁻¹]	binding result [7]	internalisation rate (live-cell imaging of AF488-VHH on MCF7 cells) [8] [summed AF-voxels/minute]	Binder
–	–	–	–	–	–	–	no binding (tested: 7.5 µM)	–	anti-CI-M6PR VHH6 (VHH, Alexa Fluor 488 NHS ester label on amines, Tag not specified) VHH: QVQLQESGGGLVQAGGSLRLSCAVSGSISSIGGMGWFRQAPGKQREFVAVILNNSGMTSYADSVKGRFTISRGNSKNTMYLQMNSLKPEDTAVYYCNYSGYWGQGTQVTVSS
–	–	–	–	–	–	–	no binding (tested: 7.5 µM)	–	anti-CI-M6PR VHH10 (VHH, Alexa Fluor 488 NHS ester label on amines, Tag not specified) VHH: QVQLQESGGGSVQAGGSLRLSCAPAGRTFSRIRMGWFRQAPGKEREFVAAISSGGLSYYADSMKGRFTISRDNAKNTVLLQMNSLEPDDTAVYYCAAVLNDYIDDYVARNPTLYDYWGQGTQVTVSS
–	–	–	–	–	–	–	no binding (tested: 7.5 µM)	–	anti-CI-M6PR VHH11 (VHH, Alexa Fluor 488 NHS ester label on amines, Tag not specified) VHH: QVQLQESGGGLVQAGDSLKLSCTASGPTFSEITGGWFRQVPGKEREFVASISSTGITTYYTDSVKGRFTVSRDNAKNTMYLQMNSLKPEDTGVYYCAARSTSRSIAITVGYDYWGQGTQVTVSS
–	–	–	–	–	–	–	no binding (tested: 7.5 µM)	–	anti-CI-M6PR VHH3 (VHH, Alexa Fluor 488 NHS ester label on amines, Tag not specified) VHH: QVQLQESGGGLVQPGGSLRLSCAAFGLNFKNFDMIWFRQAPGEERDIVAAISSSSSTIWYEDSVKGRFTISRDNAKNTVYLQMNSLKPEDTAVYYCAAALTSWRRPDYWGQGTQVTVSS
–	–	–	–	–	–	–	no binding (tested: 7.5 µM)	–	anti-CI-M6PR VHH9 (VHH, Alexa Fluor 488 NHS ester label on amines, Tag not specified) VHH: QVQLQESGGGLVQAGGSLRLSCAASGTILSIKTMGWYRQAPGKEREWVATITSSSIPMYADSVKGRFTISRDDAKNTVYLQMNSLKPEDTGVYYCNAPWTDYWGQGTQVTVSS
–	–	–	–	–	–	–	no binding (tested: 7.5 µM)	–	anti-CI-M6PR VHH4 (VHH, Alexa Fluor 488 NHS ester label on amines, Tag not specified) VHH: QVQLQESGGGLVQAGGSLRLSCAASGRTFSNYVMGWFRQAPGKEREFVGSISQGGKMTYYPDSVKGRFTISRDNAKNTMYLQMDGLKPEDTAVYYCAVSRGYPMVRVSEVDYWGQGTQVTVSS
